The target of test [1] is T1, human plasma fibronectin (human, UniProt P02751-8 32-2296, limits assumed).
T1 construct: Coated on ELISA plates at 100 nM; also called Fn
As to the kind of experiment: ELISA; ECM protein coated at 100 nM, soluble protein 0-100 nM, one-site fit. The protocol: (§1) ELISA plates (Medium binding, Greiner bio-one) were coated with 100 nM of ECM proteins in 50 μl of PBS for 1 h at 37° C.; human plasma fibronectin (Sigma), human vitronectin (Peprotech), human tenascin C (R&D Systems), human fibrinogen (Enzyme Research Laboratories). Then, wells were washed with PBS-T (PBS with 0.05% Tween-20) and blocked with 300 l PBS-T containing 1% BSA for 1 h at room temperature. ECM and control wells (no ECM and blocked with BSA) were further incubated 1 h at room temperature with solutions of murine PDGF-BB (Peprotech), IL-1Ra (R&D Systems), or PIGF₁₂₃₋₁₄₁-fused proteins at concentrations ranging from 0 to 100 nM (50 μl in PBS-T containing 0.1% BSA; PROKEEP tubes, Watson bio lab). Then, wells were washed 3 times with PBS-T and bound PDGF-BB and IL-1Ra variants were detected using biotinylated antibodies in PBS-T containing 0.1% BSA. Antibodies used were from PDGF-BB DuoSet ELISA (R&D Systems, DY8464) for PDGF-BB and IL-1ra/IL-1F3 DuoSet ELISA (R&D Systems, DY480) for IL-1Ra. To calculate the dissociation constants (KD) specific-binding values were fitted with a one site specific binding model using A₄₅₀ nm=Bmax*[growth factors or IL-1Ra variants]/(KD+[growth factors or IL-1Ra variants]).

Test [2] has as its target T2, human tenascin C (human, UniProt P24821 23-2201, limits assumed).
T2 construct: Coated on ELISA plates at 100 nM; also called TnC; Tnc
The description is as above. The protocol:
as §1

Test [3] concerns the target T3, human fibrinogen (human, UniProt P02671 20-644; P02675 31-491; P02679 27-437, limits assumed).
T3 construct: Coated on ELISA plates at 100 nM; also called Fg
T3 sequence (looked up) 1: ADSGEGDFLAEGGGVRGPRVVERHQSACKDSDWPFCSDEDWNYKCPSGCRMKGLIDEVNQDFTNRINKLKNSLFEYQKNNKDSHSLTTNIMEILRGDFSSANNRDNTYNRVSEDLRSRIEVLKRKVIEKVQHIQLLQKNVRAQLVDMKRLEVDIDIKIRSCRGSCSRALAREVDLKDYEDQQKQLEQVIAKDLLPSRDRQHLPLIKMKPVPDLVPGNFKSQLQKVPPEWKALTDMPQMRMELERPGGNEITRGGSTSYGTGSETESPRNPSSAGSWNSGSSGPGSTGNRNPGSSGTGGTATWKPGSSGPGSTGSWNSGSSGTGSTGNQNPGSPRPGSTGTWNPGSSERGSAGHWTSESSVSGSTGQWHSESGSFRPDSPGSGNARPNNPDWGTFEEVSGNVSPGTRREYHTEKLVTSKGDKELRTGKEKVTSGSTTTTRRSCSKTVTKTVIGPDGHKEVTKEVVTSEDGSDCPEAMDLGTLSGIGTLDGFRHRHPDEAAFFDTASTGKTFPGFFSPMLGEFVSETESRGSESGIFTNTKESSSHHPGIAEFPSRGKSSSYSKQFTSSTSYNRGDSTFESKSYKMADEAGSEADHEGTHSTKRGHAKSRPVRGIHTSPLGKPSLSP
T3 sequence (looked up) 2: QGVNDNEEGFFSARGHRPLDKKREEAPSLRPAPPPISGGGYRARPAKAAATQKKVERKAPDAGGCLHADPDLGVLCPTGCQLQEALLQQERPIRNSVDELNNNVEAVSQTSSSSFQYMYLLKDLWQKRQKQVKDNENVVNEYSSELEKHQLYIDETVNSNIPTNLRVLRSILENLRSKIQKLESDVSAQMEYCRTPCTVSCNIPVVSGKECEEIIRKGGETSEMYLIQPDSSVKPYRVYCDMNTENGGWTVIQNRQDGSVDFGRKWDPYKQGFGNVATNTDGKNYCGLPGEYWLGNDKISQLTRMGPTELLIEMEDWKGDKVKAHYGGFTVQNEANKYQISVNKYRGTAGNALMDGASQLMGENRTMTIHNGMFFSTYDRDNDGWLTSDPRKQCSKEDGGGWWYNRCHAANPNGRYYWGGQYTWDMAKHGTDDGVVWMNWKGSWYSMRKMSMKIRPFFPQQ
T3 sequence (looked up) 3: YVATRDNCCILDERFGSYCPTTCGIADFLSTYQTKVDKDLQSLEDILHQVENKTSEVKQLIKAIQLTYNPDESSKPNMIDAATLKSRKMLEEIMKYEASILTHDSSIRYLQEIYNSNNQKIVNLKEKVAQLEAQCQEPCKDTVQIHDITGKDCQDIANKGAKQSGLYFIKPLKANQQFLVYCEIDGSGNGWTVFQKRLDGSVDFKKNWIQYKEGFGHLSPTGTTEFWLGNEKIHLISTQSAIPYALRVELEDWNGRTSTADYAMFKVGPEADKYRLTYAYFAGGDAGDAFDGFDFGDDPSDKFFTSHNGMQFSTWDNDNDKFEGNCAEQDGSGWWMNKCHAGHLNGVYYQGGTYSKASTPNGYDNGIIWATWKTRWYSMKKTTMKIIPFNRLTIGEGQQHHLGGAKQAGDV
Described as above. The protocol:
as §1

Test [4] addresses T4, human vitronectin (human, UniProt P04004 20-478).
T4 construct: Coated on ELISA plates at 100 nM; also called Vn
Described as above. The protocol:
as §1

The target in test [5] is T1, human plasma fibronectin. As to the kind of experiment: ELISA, one site specific binding fit.
For test [6], the target named is T4, human vitronectin. As to the kind of experiment: ELISA, one site specific binding fit.
Test [7] concerns the target T2, human tenascin C. As to the kind of experiment: ELISA, one site specific binding fit.
For test [8], the target named is T3, human fibrinogen. As to the kind of experiment: ELISA, one site specific binding fit.
The target in test [9] is T1, human plasma fibronectin. As to the kind of experiment: ELISA; GST-fused fragment at 100 nM on coated ECM protein, anti-GST detection. The protocol: (§2) ELISA plates (96-Well Medium Binding, Greiner bio-one) were coated with solutions of 100 nM of human plasma fibronectin (Sigma), human vitronectin (Peprotech), human tenascin C (R&D Systems), or human fibrinogen (Enzyme Research Laboratories) in PBS for 1 h at 37° C. Wells were washed with washing buffer (PBS-T, PBS with 0.05% Tween-20) and blocked with 1% BSA in PBS-T for 1 h at room temperature. Then, wells were incubated with 100 nM of GST-fused PIGF fragments (in PBS-T with 0.1% BSA) for 1 h at room temperature. GST (100 nM) was used as negative control. Wells were washed 3 times with washing buffer and incubated with 0.1 μg/ml of HRP-conjugated antibody against GST (GE Healthcare, RPN1236V) in PBS-T with 0.1% BSA for 45 min at room temperature. Wells were washed 3 times with PBS-T and detection was done with tetramethylbenzidine substrate and measurement of the absorbance at 450 nm.

Test [10] deals with T3, human fibrinogen. The test is described as above. How it is done: as §2
The target in test [11] is T4, human vitronectin. The test is described as above. How it is done:
as §2

In test [12] the target is T1, human plasma fibronectin. As to the kind of experiment: ELISA of fragments.
Test [13] addresses T3, human fibrinogen. As to the kind of experiment: ELISA of fragments.
Test [14] concerns the target T4, human vitronectin. As to the kind of experiment: ELISA of fragments.

Where no end group is shown, it is not given here.

T4 sequence (P04004 20-478 limits assumed): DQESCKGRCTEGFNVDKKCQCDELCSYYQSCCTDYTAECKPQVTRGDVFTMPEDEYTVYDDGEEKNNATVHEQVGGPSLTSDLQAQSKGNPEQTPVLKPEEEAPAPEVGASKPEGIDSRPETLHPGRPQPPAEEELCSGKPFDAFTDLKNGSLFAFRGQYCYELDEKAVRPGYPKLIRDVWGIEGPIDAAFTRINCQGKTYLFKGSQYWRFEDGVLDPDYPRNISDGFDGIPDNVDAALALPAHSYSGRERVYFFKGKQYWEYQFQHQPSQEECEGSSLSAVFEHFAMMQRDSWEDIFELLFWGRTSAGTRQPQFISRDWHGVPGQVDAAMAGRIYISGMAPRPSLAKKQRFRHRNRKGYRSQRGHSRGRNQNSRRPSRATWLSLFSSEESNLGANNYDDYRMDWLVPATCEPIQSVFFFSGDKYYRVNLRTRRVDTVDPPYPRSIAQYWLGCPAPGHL
T1 sequence (P02751 other isoform, or with tags, fused parts or gaps limits assumed): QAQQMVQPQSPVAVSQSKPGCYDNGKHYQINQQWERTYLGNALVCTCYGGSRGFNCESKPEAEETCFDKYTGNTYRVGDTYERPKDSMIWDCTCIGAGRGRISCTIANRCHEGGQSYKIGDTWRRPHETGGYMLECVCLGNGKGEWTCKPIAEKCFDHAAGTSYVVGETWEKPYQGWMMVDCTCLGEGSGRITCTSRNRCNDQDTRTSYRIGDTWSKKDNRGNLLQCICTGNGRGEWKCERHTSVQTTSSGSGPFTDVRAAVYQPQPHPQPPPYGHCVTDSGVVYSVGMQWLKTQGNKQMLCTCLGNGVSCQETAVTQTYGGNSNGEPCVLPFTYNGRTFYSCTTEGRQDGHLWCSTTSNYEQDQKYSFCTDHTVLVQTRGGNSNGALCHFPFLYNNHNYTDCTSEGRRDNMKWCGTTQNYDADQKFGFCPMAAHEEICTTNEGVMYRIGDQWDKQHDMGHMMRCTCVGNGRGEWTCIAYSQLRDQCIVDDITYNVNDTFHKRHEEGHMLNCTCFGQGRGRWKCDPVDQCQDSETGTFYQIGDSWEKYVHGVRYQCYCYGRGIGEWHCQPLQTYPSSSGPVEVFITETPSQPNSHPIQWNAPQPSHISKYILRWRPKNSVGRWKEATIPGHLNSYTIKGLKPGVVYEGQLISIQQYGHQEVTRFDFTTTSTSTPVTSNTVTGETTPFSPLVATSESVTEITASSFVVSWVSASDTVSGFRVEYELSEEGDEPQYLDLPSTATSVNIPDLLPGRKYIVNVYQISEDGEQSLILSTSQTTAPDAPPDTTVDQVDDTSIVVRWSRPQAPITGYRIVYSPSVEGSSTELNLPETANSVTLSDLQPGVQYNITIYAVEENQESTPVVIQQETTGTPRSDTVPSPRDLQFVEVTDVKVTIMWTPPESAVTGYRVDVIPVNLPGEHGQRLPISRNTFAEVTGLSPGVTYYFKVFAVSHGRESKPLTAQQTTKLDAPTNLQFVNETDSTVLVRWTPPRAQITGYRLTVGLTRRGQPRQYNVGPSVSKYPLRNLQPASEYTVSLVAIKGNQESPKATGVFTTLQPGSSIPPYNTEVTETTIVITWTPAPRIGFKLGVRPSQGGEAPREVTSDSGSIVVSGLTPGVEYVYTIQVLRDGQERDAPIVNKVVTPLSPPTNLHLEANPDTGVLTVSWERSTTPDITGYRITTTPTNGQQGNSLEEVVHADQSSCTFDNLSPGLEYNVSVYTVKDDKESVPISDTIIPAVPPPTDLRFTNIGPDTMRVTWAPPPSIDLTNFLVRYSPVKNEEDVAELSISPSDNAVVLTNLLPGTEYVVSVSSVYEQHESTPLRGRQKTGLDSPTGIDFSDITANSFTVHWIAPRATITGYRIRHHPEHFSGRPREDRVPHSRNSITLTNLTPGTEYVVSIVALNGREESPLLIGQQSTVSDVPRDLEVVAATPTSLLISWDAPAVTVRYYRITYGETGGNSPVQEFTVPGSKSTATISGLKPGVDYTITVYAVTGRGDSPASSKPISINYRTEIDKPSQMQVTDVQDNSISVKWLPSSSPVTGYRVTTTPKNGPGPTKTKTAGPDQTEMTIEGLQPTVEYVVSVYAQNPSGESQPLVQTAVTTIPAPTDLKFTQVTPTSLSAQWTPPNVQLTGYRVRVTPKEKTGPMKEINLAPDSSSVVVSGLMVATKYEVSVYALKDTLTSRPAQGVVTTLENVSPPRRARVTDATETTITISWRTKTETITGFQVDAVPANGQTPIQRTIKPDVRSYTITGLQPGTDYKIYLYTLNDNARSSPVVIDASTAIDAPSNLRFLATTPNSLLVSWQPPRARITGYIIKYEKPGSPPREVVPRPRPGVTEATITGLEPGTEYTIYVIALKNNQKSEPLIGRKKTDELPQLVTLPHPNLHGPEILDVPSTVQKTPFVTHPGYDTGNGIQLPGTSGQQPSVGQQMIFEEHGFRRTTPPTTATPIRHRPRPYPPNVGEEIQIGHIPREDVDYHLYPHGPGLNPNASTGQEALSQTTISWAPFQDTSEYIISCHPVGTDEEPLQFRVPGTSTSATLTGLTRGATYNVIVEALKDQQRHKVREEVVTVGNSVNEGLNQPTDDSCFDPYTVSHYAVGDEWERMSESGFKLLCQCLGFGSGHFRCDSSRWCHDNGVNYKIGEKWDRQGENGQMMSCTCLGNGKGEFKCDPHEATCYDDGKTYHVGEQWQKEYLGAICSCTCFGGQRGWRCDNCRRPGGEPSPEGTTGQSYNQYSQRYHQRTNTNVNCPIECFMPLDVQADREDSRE
T2 sequence (P24821 23-2201 limits assumed): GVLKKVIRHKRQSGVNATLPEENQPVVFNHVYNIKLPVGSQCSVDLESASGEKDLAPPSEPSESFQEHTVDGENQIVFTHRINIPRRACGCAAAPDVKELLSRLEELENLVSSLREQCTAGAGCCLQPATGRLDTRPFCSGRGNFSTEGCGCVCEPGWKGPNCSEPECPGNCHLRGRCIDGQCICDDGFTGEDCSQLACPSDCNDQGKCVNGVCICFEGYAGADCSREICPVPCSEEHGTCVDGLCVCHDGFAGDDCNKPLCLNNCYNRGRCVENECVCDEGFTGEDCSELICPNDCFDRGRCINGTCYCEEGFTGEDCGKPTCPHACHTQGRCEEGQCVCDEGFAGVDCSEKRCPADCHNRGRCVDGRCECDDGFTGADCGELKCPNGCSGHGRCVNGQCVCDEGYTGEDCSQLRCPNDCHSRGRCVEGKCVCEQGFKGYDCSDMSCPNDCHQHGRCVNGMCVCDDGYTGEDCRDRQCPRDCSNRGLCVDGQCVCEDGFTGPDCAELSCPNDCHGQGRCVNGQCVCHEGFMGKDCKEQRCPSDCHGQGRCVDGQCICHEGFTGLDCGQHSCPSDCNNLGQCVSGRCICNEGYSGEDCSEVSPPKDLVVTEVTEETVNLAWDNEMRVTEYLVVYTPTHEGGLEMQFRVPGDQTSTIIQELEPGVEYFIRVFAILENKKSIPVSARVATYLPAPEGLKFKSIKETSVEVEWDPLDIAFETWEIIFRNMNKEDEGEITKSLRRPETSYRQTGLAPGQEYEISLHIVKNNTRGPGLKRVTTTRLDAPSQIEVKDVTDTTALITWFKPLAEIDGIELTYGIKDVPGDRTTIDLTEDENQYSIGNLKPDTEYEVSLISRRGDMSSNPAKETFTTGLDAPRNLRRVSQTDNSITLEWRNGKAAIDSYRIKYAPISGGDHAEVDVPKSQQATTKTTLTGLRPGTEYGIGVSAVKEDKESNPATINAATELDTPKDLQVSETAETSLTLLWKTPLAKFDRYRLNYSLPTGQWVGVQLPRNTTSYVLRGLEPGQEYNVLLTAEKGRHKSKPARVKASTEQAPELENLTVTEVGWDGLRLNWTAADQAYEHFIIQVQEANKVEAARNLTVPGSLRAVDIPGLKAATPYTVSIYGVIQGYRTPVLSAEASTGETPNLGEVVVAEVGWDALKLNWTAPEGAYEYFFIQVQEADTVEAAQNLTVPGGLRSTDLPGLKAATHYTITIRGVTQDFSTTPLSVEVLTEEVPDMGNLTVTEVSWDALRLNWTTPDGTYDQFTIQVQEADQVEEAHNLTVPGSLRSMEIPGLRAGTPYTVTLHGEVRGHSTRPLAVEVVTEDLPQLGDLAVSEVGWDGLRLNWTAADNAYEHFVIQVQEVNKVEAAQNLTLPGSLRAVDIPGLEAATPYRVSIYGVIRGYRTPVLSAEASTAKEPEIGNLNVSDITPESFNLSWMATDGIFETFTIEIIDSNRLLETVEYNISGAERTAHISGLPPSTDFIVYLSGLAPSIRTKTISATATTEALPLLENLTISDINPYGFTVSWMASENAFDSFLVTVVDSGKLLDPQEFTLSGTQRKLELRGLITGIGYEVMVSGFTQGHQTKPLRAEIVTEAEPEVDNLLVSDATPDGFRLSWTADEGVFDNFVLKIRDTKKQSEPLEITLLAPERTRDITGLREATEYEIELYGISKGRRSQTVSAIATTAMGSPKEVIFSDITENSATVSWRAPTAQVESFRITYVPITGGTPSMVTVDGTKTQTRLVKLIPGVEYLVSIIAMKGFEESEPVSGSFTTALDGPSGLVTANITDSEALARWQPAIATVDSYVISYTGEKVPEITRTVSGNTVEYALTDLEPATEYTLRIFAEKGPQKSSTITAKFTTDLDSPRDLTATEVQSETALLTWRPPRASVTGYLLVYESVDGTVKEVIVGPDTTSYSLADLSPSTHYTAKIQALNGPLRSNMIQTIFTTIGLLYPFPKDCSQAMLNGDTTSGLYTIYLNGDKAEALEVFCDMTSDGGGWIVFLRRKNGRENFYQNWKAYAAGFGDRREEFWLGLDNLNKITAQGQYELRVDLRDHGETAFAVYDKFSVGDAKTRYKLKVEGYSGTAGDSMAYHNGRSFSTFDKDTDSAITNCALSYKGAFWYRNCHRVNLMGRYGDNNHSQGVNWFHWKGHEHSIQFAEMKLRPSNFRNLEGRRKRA

B1: IL-1Ra/PIGF123-141 (other)
chain: MNHKVHHHHHHMRPSGKRPCKMQAFRIWDTNQKTFYLRNNQLIAGYLQGPNIKLEEKIDMVPIDLHSVFLGIHGGKLCLSCAKSGDDIKLQLEEVNITDLSKNKEEDKRFTFIRSEKGPTTSFESAACPGWFLCTTLEADRPVSLTNTPEEPLIVTKFYFQEDQRRRPKGRGKRRREKQRPTD
With B1, the Kd stood at 21.9 nM with human plasma fibronectin [1], 20.7 nM with human tenascin C [2], 43.5 nM with human fibrinogen [3] and 0.7 nM with human vitronectin [4].

B2: neurturin (NRTN) (ligand, UniProt Q99748 96-197, looked up)
chain: ARLGARPCGLRELEVRVSELGLGYASDETVLFRYCAGACEAAARVYDLGLRRLRQRRRLRRERVRAQPCCRPTAYEDEVSFLDAHSRYHTVHELSARECACV
As to B2, the figures for the Kd with human plasma fibronectin [5] and with human vitronectin [6] were 50.1 nM and 27.6 nM, respectively.

B3: amphiregulin (AREG) (ligand, UniProt P15514 101-198, looked up)
chain: SVRVEQVVKPPQNKTESENTSDKPKRKKKGGKNGKNRRNRKKKNPCNAEFQNFCIHGECKYIEHLEAVTCKCQQEYFGERCGEKSMKTHSMIDSSLSK
For B3, the Kd with human plasma fibronectin [5] was 8.6 nM; in the test with human tenascin C [7] it was 36.8 nM; with human fibrinogen [8], 8.2 nM; with human vitronectin [6], 13.8 nM.

B4: GST-fused PIGF123-141 fragment (peptide)
chain: RRRPKGRGKRRREKQRPTD-6xHis
modifications: not fully specified (N-terminus); also: fused to GST (vector linker letters not given here)
notes: Expressed in E. coli BL21 (DE3), purified on GSTrap and then HisTrap, and used at 100 nM in the ELISA; not shown: glutathione S-transferase (GST) encoded by the expression vector pGEX6P-1; histidine tag (6xHis) added at the C-terminus of the fragment
For the molecule B4, the binding result with human plasma fibronectin [9], with human fibrinogen [10] and with human vitronectin [11] was “binds” in each case.

B5: PDGF-BB/PIGF123-141 (other)
chain: SLGSLAAAEPAVIAECKTRTEVFQISRNLIDRTNANFLVWPPCVEVQRCSGCCNNRNVQCRASQVQMRPVQVRKIEIVRKKPIFKKATVTLEDHLACKCETIVTPRPVTRRRPKGRGKRRREKQRPTD
notes: not shown: 6x histidine tag at the N-terminus
As for B5, the Kd with human plasma fibronectin [1] came out at 17.7 nM; with human tenascin C [2], 25 nM; with human fibrinogen [3], 16.7 nM; with human vitronectin [4], 1.4 nM.

B6: PDGF-BB (murine wild-type platelet-derived growth factor-BB) (ligand, UniProt P31240 82-190, looked up)
chain: SLGSLAAAEPAVIAECKTRTEVFQISRNLIDRTNANFLVWPPCVEVQRCSGCCNNRNVQCRASQVQMRPVQVRKIEIVRKKPIFKKATVTLEDHLACKCETIVTPRPVT
notes: also called wild-type PDGF-BB
Turning to B6, the Kd is 67.5 nM with human plasma fibronectin [1], 94.3 nM in the test with human tenascin C [2], 206 nM in the test with human fibrinogen [3] and 32.1 nM in the test with human vitronectin [4].

B7: AREG126-138 fragment (GST-fused construct from pGEX6P-1) (peptide)
chain: RKKKGGKNGKNRR
modifications: also: fused to GST (vector linker letters not given here), letters not given here
notes: Cloned into pGEX6P-1, expressed in E. coli BL21, and purified on GSTrap and His-tag columns; not shown: GST encoded by the expression vector pGEX6P-1; a His tag is implied by purification on a His-tag HP column
Consider B7, for which the binding result with human plasma fibronectin [12], with human fibrinogen [13] and in the test with human vitronectin [14] was “binds” throughout.

B8: Placenta growth factor-2 (PIGF-2) (ligand)
chain: LPAVPPQQWALSAGNGSSEVEVVPFQEVWGRSYCRALERLVDVVSEYPSEVEHMFSPSCVSLLRCTGCCGDENLHCVPVETANVTMQLLKIRSGDRPSYVELTFSQHVRCECRPLREKMKPERRRPKGRGKRRREKQRPTDCHLCGDAVPRR
For the molecule B8, the Kd with human plasma fibronectin [5] was determined as 11.6 nM; with human tenascin C [7], 16.6 nM; with human fibrinogen [8], 9.9 nM; in the test with human vitronectin [6], 13.9 nM.

B9: IL-1Ra (murine wild-type interleukin-1 receptor antagonist) (ligand)
chain: MRPSGKRPCKMQAFRIWDTNQKTFYLRNNQLIAGYLQGPNIKLEEKIDMVPIDLHSVFLGIHGGKLCLSCAKSGDDIKLQLEEVNITDLSKNKEEDKRFTFIRSEKGPTTSFESAACPGWFLCTTLEADRPVSLTNTPEEPLIVTKFYFQEDQ
notes: also called wild-type IL-1Ra; IL-1 receptor antagonist
Consider B9, for which the Kd was 129 nM with human plasma fibronectin [1], 113 nM in the test with human tenascin C [2], 663 nM with human fibrinogen [3] and 73.2 nM with human vitronectin [4].

B10: NRTN146-157 fragment (GST-fused construct from pGEX6P-1) (peptide)
chain: RRLRQRRRLRRE
modifications: also: fused to GST (vector linker letters not given here), letters not given here
notes: as for B7
As to B10, the binding result with human plasma fibronectin [12], in the test with human fibrinogen [13] and with human vitronectin [14] was “binds” throughout.

The record behind these values is US20230272045A1 (MONASH UNIVERSITY, published 2023).
